In paper PMC11169542, “A probe for NIR-II imaging and multimodal analysis of early Alzheimer’s disease by targeting CTGF” (Nature Communications, 2024):
Ends that are not written are not given here.

T1: recombinant Human CTGF protein (connective tissue growth factor) (human, UniProt P29279 27-349)
T1 construct: connective tissue growth factor (CTGF), human, recombinant; source: bought: Abcam, Cat#ab283457
T1 sequence (looked up): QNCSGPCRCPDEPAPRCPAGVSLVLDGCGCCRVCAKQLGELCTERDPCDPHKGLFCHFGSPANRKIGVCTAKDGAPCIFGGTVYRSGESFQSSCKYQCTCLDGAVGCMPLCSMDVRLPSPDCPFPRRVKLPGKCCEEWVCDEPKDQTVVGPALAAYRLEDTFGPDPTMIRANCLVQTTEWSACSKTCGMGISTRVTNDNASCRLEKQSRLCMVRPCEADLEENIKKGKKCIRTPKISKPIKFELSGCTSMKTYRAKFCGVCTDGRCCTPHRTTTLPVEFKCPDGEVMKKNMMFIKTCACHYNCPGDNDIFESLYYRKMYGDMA

B1: DGC probe (peptide-coated gold nanocluster, Au26DAG8) (other)
peptide: CDAGRKQKC
modifications: also: Au26 nanocluster bound via Cys sulfhydryl Au-S bonds, cyclic, ring closure not given here
notes: DAG peptide, eight copies on one Au26 gold nanocluster; One Au26 gold nanocluster coated by eight DAG peptides (by MALDI-TOF-MS); also called CTGF-targeting peptide-coated gold nanocluster; source: synthesised from DAG peptide and HAuCl4 at 55 °C, purified by ultrafiltration (MWCO 3 kDa)
B2: cyclic peptide Cys-Asp-Ala-Gly-Arg-Lys-Gln-Lys-Cys (DAG) (peptide)
peptide: CDAGRKQKC
modifications: also: cyclic peptide, ring not given here
notes: CTGF-targeting peptide DAG; also called free DAG; DAG peptide; source: synthetic peptide (solid-phase method, Beijing Scilight Biotechnology LLC, purity 95%)

Molecular target: T1, recombinant Human CTGF protein …
Experiment: SPR; BIAcore 8K+; recombinant human CTGF immobilised on a CM5 chip by amine coupling; eluent PBS with 0.005% Tween 20; DAG 0.5-16 μM or DGC 0.01-0.16 μM; 25 °C
Conditions: both partners purified

Row | Binder | Kd [µM]
1 | B1 | 0.0219
2 | B2 | 22.3
